# Positions count from the first letter of the chain named. In names and notes the source's numbering stands.
# B1: TaHPPD2-02: native HPPD of Triticum aestivum ecotype 2, UniProt Q45FE8, SEQ ID NO: 183 (protein, listed as Triticum aestivum)
# chain: MPPTPTTPAATGAGAAAAVTPEHARPRRMVRFNPRSDRFHTLSFHHVEFWCADAASAAGRFAFALGAPLAARSDLSTGNSVHASQLLRSGNLAFLFTAPYANGCDAATASLPSFSADAARRFSADHGLAVRSIALRVADAAEAFRASVDGGARPAFSPVDLGRGFGFAEVELYGDVVLRFVSHPDDTDVPFLPGFEGVSNPDAVDYGLTRFDHVVGNVPELAPAAAYVAGFAGFHEFAEFTTEDVGTAESGLNSMVLANNSEGVLLPLNEPVHGTKRRSQIQTFLEHHGGSGVQHIAVASSDVLRTLREMRARSAMGGFDFLPPRCRKYYEGVRRIAGDVLSEAQIKECQELGVLVDRDDQGVLLQIFTKPVGDRPTLFLEMIQRIGCMEKDERGEEYQKGGCGGFGKGNFSELFKSIEDYEKSLEAKQSAAVQGS
# modifications: TaHPPD2 Amino Acid Sequence
# B2: TaHPPD2m-F372A-02: Triticum aestivum ecotype 2 HPPD mutant F372A, SEQ ID NO: 186 (protein)
# chain: B1 chain with F368A
# modifications: TaHPPD2m-F372A Amino Acid Sequence
# B3: TaHPPD3-02: native HPPD of Triticum aestivum ecotype 3, UniProt A0A3B6PKV0, SEQ ID NO: 189 (protein, listed as Triticum aestivum)
# chain: B1 chain with G14A, S43A, S291P, R325P, C326L, R327P, G435A
# modifications: TaHPPD3 Amino Acid Sequence
# B4: TaHPPD3m-F372A-02: Triticum aestivum ecotype 3 HPPD mutant F372A, SEQ ID NO: 192 (protein)
# chain: B1 chain with G14A, S43A, S291P, R325P, C326L, R327P, F368A, G435A
# modifications: TaHPPD3m-F372A Amino Acid Sequence
# B5: TaHPPD1m-F372A-02: Triticum aestivum ecotype 1 HPPD mutant F372A, SEQ ID NO: 180 (protein)
# chain: MMNAHANLALAALAFPAHMPNSKSSHIRSRRTRRPLLPLTMAAHPPIRTNIGMSTHGSASGGGEQAGISSTDRFRMIDFHHVEFWCADAASAAARFSFGLGVPLAAESGLSTGNTAHASHLLHSRSGSLALLFSAPYAQGDAVTASVPSFDADAARRFTADHGLAVRAMAVRVPDAGEAFRTSVDAGARPSFAPAELGHGFELAEVQLYGDVVLRFVSHPDDTAIPFLPGFGSVPSSGATPDYGLTRFDHIVGDVPHLAPVAAYIAGFTGFHEFSRFTADQVGTAESSLNVVVLANNSENVLLTVVEPVHGTKRRSQVQTYLDHHGGPGVQHLAMASNDVLGTLRKIRGRSTMGGFELLPPPPASYYDDVRRRAGDVLSEAQIKGCQELGVRVDKDDHGGVVLQIATKAAGDRPTLLLEFIQRIGCMDKDENGQEYQRGGCGGFGQGNVTELFKSIEDYEKSLDASARLAA
# modifications: TaHPPD1m-F372A Amino Acid Sequence
# B6: TaHPPD4-02: native HPPD of Triticum aestivum ecotype 4, UniProt A0A3B6NLC6, SEQ ID NO: 195 (protein, listed as Triticum aestivum)
# chain: MPPTPTTPAATGAAAVTPEHARPRRMVRFNPRSDRFHTLAFHHVEFWCADAASAAGRFAFALGAPLAARSDLSTGNSVHASQLLRSGNLAFLFTAPYANGCDAATASLPSFSADAARQFSADHGLAVRSIALRVADAAEAFRASVDGGARPAFSPVDLGRGFGFAEVELYGDVVLRFVSHPDGRDVPFLPGFEGVSNPDAVDYGLTRFDHVVGNVPELAPAAAYVAGFTGFHEFAEFTTEDVGTAESGLNSMVLANNSEGVLLPLNEPVHGTKRRSQIQTFLEHHGGSGVQHIAVASSDVLRTLREMRARSAMGGFDFLPPPLPKYYEGVRRIAGDVLSEAQIKECQELGVLVDRDDQGVLLQIFTKPVGDRPTLFLEMIQRIGCMEKDERGEEYQKGGCGGFGKGNFSELFKSIEDYEKSLEAKQSAAVQGS
# modifications: TaHPPD4 Amino Acid Sequence
# B7: TaHPPD4m-F372A-02: Triticum aestivum ecotype 4 HPPD mutant F372A, SEQ ID NO: 198 (protein)
# chain: B6 chain with F365A
# modifications: TaHPPD4m-F372A Amino Acid Sequence
# Test system: Arabidopsis thaliana T1 plants
# Experiment: Topramezone tolerance of transgenic Arabidopsis thaliana T1 plants (pesticide damage grade by bleached leaf area, score, resistance evaluation)
# Type: in vivo
# Conditions: HPPDs from ecotypes of Triticum aestivum; for Classification and statistics of pesticide damage grade: Grade 0 / Classification and statistics of pesticide damage grade: Grade 1 / Classification and statistics of pesticide damage grade: Grade 2 / Classification and statistics of pesticide damage grade: Grade 3: number of plants
# How it was run: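 Eighteen days after sowing, wild-type and HPPD-transgenic T1 Arabidopsis receive a topramezone spray at 1×, 2× or 4× field rate (25–100 g ai/ha) or water. Seven days later each plant is graded by its proportion of bleached leaf area.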
Molecule,Resistance evaluation (topramezone 25 g ai/ha (1x)),Scores (topramezone 25 g ai/ha (1x)),Classification and statistics of pesticide damage grade: Grade 0 (topramezone 25 g ai/ha (1x)),Classification and statistics of pesticide damage grade: Grade 1 (topramezone 25 g ai/ha (1x)),Classification and statistics of pesticide damage grade: Grade 2 (topramezone 25 g ai/ha (1x)),Classification and statistics of pesticide damage grade: Grade 3 (topramezone 25 g ai/ha (1x)),Resistance evaluation (topramezone 100 g ai/ha (4x)),Scores (topramezone 100 g ai/ha (4x)),Classification and statistics of pesticide damage grade: Grade 0 (topramezone 100 g ai/ha (4x)),Classification and statistics of pesticide damage grade: Grade 1 (topramezone 100 g ai/ha (4x)),Classification and statistics of pesticide damage grade: Grade 2 (topramezone 100 g ai/ha (4x)),Classification and statistics of pesticide damage grade: Grade 3 (topramezone 100 g ai/ha (4x))
B1,non-resistant (non-resistant plants (scores 68-100)),100,0,0,0,16,non-resistant (non-resistant plants (scores 68-100)),100,0,0,0,16
B2,highly resistant (highly resistant plants (scores 0-15)),0,16,0,0,0,moderately resistant (moderately resistant plants (scores 16-33)),17,8,8,0,0
B3,non-resistant (non-resistant plants (scores 68-100)),100,0,0,0,16,non-resistant (non-resistant plants (scores 68-100)),100,0,0,0,16
B4,highly resistant (highly resistant plants (scores 0-15)),0,16,0,0,0,highly resistant (highly resistant plants (scores 0-15)),8,12,4,0,0
B5,highly resistant (highly resistant plants (scores 0-15)),0,16,0,0,0,highly resistant (highly resistant plants (scores 0-15)),2,15,1,0,0
B6,non-resistant (non-resistant plants (scores 68-100)),92,0,0,4,12,non-resistant (non-resistant plants (scores 68-100)),100,0,0,0,16
B7,highly resistant (highly resistant plants (scores 0-15)),0,16,0,0,0,highly resistant (highly resistant plants (scores 0-15)),10,11,5,0,0

# — US20230212587A1, “Mutant Hydroxyphenylpyruvate Dioxygenase Polypeptide, Encoding Gene Thereof and Use Therefor” (Beijing Dabeinong Biotechnology Co., Ltd., priority 2019, published 2023)
